Legend:
[1] = biological target: T1, Ebola virus glycoprotein (EBOV GP), trimer of the GP1 + GP2 heterodimer lacking the transmembrane domain (Ebola virus, Mayinga strain, UniProt Q05320); experiment: SPR; conditions: both partners purified
T1 construct: also called soluble Ebola virus glycoprotein; EBOV GP trimer complex of GP1 + GP2 heterodimer; source: Drosophila S2 cells; supplied by Integrated Biotherapeutics, purified
T1 sequence (Q05320 33-637, one chain of several): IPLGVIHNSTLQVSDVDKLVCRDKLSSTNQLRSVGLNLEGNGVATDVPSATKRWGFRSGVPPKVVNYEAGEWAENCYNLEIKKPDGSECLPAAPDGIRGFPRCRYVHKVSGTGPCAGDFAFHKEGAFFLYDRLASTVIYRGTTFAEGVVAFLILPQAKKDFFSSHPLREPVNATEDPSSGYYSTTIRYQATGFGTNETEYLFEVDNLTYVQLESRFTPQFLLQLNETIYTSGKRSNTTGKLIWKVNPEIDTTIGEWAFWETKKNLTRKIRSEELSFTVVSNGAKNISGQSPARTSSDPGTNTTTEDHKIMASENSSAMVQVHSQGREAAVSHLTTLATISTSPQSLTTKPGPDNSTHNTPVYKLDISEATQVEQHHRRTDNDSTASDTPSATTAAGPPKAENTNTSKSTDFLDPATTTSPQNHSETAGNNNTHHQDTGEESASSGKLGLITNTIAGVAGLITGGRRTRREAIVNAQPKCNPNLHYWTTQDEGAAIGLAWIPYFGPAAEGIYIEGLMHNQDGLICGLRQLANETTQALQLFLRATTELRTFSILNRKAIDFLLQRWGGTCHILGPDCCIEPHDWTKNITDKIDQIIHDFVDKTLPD

[2] = biological target: T2, Ebola virus glycoprotein (EBOV GP), trimer of the GP1 + GP2 heterodimer lacking the transmembrane domain (Ebola virus, Mayinga strain, UniProt Q05320); experiment: SPR; conditions: both partners purified; remark: listed apart in the source
T2 construct: also called soluble Ebola virus glycoprotein; EBOV GP trimer complex of GP1 + GP2 heterodimer; source: Drosophila S2 cells; supplied by Integrated Biotherapeutics, purified
T2 sequence (Q05320 33-637, one chain of several): as above

Binder | binding result [1] | binding result [2]
CA45 (antibody, V domains shown) VH: QVQLQEWGEGLVKPSETLSLTCAVYGGSISGYYHWNWIRLPPGKGLEWIGNIDGNSASTNYNPSLKTRVTISKDTSKNQISLKVRSLTAADTAVYYCARDPGFTIFGVVITSWSGLDSWGQGAVVTVSS VL: DIQMTQSPSSLSASVGDTVTITCRASQSISNNLAWYQQRPRRAPQLLIYAASNLASGVPSRFSGSGSGTDFTLTISSLQAEDFAAYYCQQHNTLPLTFGGGTKVEIK | binds | –
ADI-15878 (antibody, V domains shown, also called PE-87; Control PE-87; source: supplied in purified form (Integrated Biotherapeutics)) VH: QVQLVQSGVTLVQPGGSLRVSCAASGFTFSSYAMSWVRQAPGKGLEWVSAISGLGGSTYYADSVKGRFTISRDNSKNTLYLQMNSLRAEDTAVYYCAKDHRVWAAGYHFDYWGQGALVTVSS VL: DIVLTQSPSTLSASVGDRVTITCRASQSISSWLAWYQQKPGEAPKLLISDASSLESGVPSRFSGSGSGTEFTLTISSLQPDDFATYYCQQYYSSPIFGGGTKVEIK | – | binds
mAb114 (antibody, V domains shown, source: supplied in purified form (Integrated Biotherapeutics)) VH: EVQLVESGGGLIQPGGSLRLSCAASGFALRMYDMHWVRQTIDKRLEWVSAVGPSGDTYYADSVKGRFAVSRENAKNSLSLQMNSLTAGDTAIYYCVRSDRGVAGLFDSWGQGILVTVSS VL: DIQMTQSPSSLSASVGDRITITCRASQAFDNYVAWYQQRPGKVPKLLISAASALHAGVPSRFSGSGSGTHFTLTISSLQPEDVATYYCQNYNSAPLTFGGGTKVEIK | – | binds
mAb100 (antibody, V domains shown) VH: QVQLQESGPGLVKPSDTLSLTCTVSGGSLSSFYWSWIRQPPGKGLEWIGYIYYSGSPNYSPSLESRVTMSVDTTRNQISLKLDSVTAADTAVYYCVRASRSYYWGSYRPTAFDSWGQGTLVTVSS VL: YELTQPLSVSVSPGQTAIFTCSGDNLGDKYVCWFQQRPGQSPMLLIYQDNKRPSGIPERFSGSNSGNTATLTISGTQSTDEADYYCQTWDSTVVFGGGTKLTVL | binds | –
ADI-15946 (antibody, V domains shown, also called PE-64) VH: EVQLVESGGGLVKPGGSLRLSCAASGFTFSNAWMSWVRQAPGKGLEWVGRIKSKTDGGTIDYAAPVKGRFTISRDDSKNTVYLQMTSLKTEDTAVYYCTTYTEDMRYFDWLLRGGETFDYWGQGTLVTVSS VL: DIRLTQSPSSLSASVGDRVTITCRASHYISTYLNWYQQKPGKAPKLLIYAASNLQSGVPSRFSGSGFGTDFSLTISSLQPEDFATYHCQQSYSTPGRYTFGQGTKVEIK | binds | –
KZ52 (antibody, V domains shown, source: supplied in purified form (Integrated Biotherapeutics)) VH: EVQLLESGGGLVKPGGSLRLSCAASGFTLINYRMNWVRQAPGKGLEWVSSISSSSSYIHYADSVKGRFTISRDNAENSLYLQMNSLRAEDTAVYYCVREGPRATGYSMADVFDIWGQGTMVTVSS VL: not shown | – | binds

Reference: publication PMC7454256 (Antibody Therapeutics, 2020)
